Where a chain is given by its changes, count along the chain named. Values joined by “and” are separate entries in the source; they are usually repeats but may differ in a detail not shown here. Equal entries are not always repeated.
B1: nanobody 59H10 (VHH)
VHH: DVQLQESGGGLVQAGGSLRLSCAASGSISRFNAMGWWRQAPGKEREFVARIVKGFDPVLADSVKGRFTISIDSAENTLALQMNRLKPEDTAVYYCFAALDTAYWGQGTQVTVSS
B2: nanobody 37E7 (VHH)
VHH: B1 VHH with F55G, D56Y, P57A

Key:
[1] = molecular target: HIV-1 capsid protein p24 (His-p24) (HIV-1) (UniProt P12493); assay: ITC; nanobody (200 uM, syringe) titrated into His-p24 (12.5 uM, cell); 10 mM phosphate pH 8, 25 mM NaCl; 25.1 C; at least triplicate
[2] = molecular target: HIV-1 capsid protein p24 (His-p24) (HIV-1) (UniProt P12493); assay: BLI; in the same nanobody storage buffer (Fig. S5)

Binder	dH [1]	Kd [2]
B1	-3.9 kcal/mol	0.77 nM
B2	-4.1 kcal/mol and -4.09 kcal/mol	9.6 nM

From paper PMC9892613
